Data published in patent US20240158497A1 (published 2024).
Blank lines part the entries; values can stand above or below the binder they belong to.

Key:
[1] = target: T1, human GP130 full length extracellular domain with C-terminal myc-myc-hexahistidine tag (human, UniProt P40189 23-619); experiment: Luminex, antigen captured on anti-myc beads
T1 construct: Monomeric; also called human GP130-MMH; hGP130-mmH
Procedure: (§1) Aliquots of microspheres with immobilized anti-myc monoclonal antibodies, prepared as described above, were added individually to 1 mL of the each of these protein supernatants and to 500 uL of purified GP130 protein. The microspheres were gently mixed, incubated for two hours at 25° C., washed twice with 1 mL of DBPS, centrifuged to remove the supernatant and finally resuspended in 1 mL of DPBS buffer. Forty eight μL of anti-myc IgG coupled microspheres from individual reactions with full length human GP130 and with each of the human GP130 domain proteins were withdrawn and mixed together in 3.6 mL of PBS+20 mg/mL BSA+0.05% sodium azide (blocking buffer).
(§2) From this mixed pool, 75 μL of microspheres were plated per well on a 96 well filter plate (Millipore, Cat. No: MSBVN1250) and mixed with 25 μL of individual anti-human GP130 monoclonal antibodies (0.5 or 5 μg/mL), incubated for two hours at 25° C. and then washed twice with 200 μL of DPBS with 0.05% Tween 20 (washing buffer). To detect and quantify the amounts of bound anti-GP130 antibody levels to individual microspheres, either 100 μL of 2.5 μg/mL R-Phycoerythrin conjugated goat F(ab′)2 anti-human kappa (Southern Biotech, Cat #2063-09) in blocking buffer, was added and incubated for 30 minutes at 25° C. After 30 minutes, the samples were washed twice with 200 μL of washing buffer and resuspended in 150 μL of wash buffer. The Median Fluorescence intensity (MFI) of the microspheres was measured in a Luminex Analyzer.

[2] = target: T2, human GP130 delta D1 with C-terminal myc-myc hexahistidine tag (human, UniProt P40189 124-619); experiment: Luminex, antigen captured on anti-myc beads
T2 construct: used as CHO supernatant; also called human GP130 delta D1-MMH; GP130 Delta D1 extracellular domain
T2 sequence (P40189 other isoform, or with tags, fused parts or gaps mutant limits assumed): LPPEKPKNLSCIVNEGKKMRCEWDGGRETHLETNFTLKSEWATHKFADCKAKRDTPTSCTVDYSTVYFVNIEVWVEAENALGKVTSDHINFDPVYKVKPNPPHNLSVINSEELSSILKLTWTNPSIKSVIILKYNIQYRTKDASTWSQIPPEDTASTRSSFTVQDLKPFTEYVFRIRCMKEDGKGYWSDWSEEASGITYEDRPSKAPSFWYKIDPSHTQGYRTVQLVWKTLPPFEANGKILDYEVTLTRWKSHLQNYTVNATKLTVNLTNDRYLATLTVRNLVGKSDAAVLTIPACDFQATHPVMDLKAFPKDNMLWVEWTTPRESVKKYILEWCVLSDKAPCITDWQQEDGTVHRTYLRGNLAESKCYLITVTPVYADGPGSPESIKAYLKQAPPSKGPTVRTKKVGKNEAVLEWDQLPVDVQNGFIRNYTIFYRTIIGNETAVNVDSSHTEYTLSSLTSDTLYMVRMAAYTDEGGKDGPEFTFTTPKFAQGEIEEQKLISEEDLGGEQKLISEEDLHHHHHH
Procedure: as §1, §2

[3] = target: T3, human GP130 delta D1-D3 with C-terminal myc-myc hexahistidine tag (human, UniProt P40189 329-619); experiment: Luminex, antigen captured on anti-myc beads
T3 construct: used as CHO supernatant; also called human GP130 delta D1-D3-MMH; GP130 Delta D1-D3 extracellular domain
T3 sequence (P40189 other isoform, or with tags, fused parts or gaps mutant limits assumed): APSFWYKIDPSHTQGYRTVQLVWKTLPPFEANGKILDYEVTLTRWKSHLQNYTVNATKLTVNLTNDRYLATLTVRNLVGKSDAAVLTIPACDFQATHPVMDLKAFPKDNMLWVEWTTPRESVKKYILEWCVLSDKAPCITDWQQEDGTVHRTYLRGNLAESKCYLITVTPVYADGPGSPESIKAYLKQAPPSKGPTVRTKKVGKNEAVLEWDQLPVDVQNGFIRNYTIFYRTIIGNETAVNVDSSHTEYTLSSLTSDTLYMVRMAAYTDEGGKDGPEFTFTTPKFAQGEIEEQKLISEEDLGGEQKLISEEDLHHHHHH
Procedure: as §1, §2

[4] = target: T4, human gp130 extracellular domain (E23-E619) with C-terminal mouse IgG2a Fc (human); experiment: blocking ELISA, 2.5 nM hGP130-mFc on plate-bound CNTFR/CNTF complex
T4 construct: dimeric; also called hGP130-mFc; human GP130-mFc
T4 chain: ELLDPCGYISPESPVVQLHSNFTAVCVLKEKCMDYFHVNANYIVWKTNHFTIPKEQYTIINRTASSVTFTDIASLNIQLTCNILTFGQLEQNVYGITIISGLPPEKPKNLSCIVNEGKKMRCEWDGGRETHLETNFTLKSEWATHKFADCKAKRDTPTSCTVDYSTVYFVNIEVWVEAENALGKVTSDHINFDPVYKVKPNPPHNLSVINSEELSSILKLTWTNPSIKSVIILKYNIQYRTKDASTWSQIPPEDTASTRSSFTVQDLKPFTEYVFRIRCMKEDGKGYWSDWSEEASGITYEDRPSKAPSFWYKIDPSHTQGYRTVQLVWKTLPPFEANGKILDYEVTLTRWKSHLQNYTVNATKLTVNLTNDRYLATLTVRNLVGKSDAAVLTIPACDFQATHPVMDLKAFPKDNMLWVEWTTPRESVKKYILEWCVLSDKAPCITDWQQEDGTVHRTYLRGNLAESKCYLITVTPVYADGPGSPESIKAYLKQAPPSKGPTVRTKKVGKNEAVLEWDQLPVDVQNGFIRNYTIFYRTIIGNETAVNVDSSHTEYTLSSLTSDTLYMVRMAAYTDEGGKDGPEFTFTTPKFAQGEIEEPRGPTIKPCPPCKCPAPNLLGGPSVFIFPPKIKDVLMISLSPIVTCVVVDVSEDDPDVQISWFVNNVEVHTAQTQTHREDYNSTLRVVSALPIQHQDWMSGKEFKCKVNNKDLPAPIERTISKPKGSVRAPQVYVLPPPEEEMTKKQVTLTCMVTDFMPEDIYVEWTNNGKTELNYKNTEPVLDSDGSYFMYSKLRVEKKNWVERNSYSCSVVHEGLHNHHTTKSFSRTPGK
Procedure: The experiment was carried out using the following procedure. Human CNTFRα was coated at a concentration of […] in HBSS on a 96-well microtiter plate overnight at 4° C. […] Human CNTF at a concentration of 1 μg/ml in HBSS was added to the plate bound CNTFRα for 1 hour at room temperature. In separate dilution plates, a constant amount of 2.5 nM of human GP130-mFc protein was titrated with antibodies ranging from 3.4 pM to 200 nM in serial dilution and with no antibody present. These solutions were incubated for 1 hour at room temperature (RT) and subsequently transferred to the microtiter plates with CNTFRα/CNTF complex without washing. The plates were incubated for 2 hours at RT, washed with PBST buffer, and plate-bound hGP130-mFc was detected with an anti-mFc polyclonal antibody conjugated with horseradish peroxidase (HRP) (Jackson ImmunoResearch Inc). Samples were developed with a TMB solution (BD Biosciences, substrate A and B mixed at 1:1 ratio as per manufacturer's instructions) to produce a colorimetric reaction and then neutralized with 1M sulfuric acid before measuring absorbance at 450 nm on a Victor X5 plate reader.
Data analysis was performed using a sigmoidal dose-response model within Prism™ software (GraphPad). […] Percent blockade at maximum concentration tested was calculated as an indicator of the ability of the antibodies to block binding of GP130 to CNTFRα/CNTF on the plate as determined from the dose curve. The ratio of the reduction in signal observed in the presence of the highest tested concentration of 200 nM antibody, relative to the difference between the signal with 2.5 nM GP130 with no antibody (0% blocking) and the background signal from HRP-conjugated secondary antibody alone (100% blocking), was subtracted from 100% blocking.

Luminex MFI signal [1]: 18700 MFI
Luminex MFI signal [2]: 2900 MFI
Luminex MFI signal [3]: 56 MFI
Max Blocking of Antibody at 200 nM (%) [4]: -14.8%
B1: MAb16614 (antibody, V domains shown)
VH: QVQLVESGGGVVQPGGSLRLSCAASGFTFSTYDIHWVRQAPGKGLEWVAVISFDGSNRNYGDSVKGRFTISRDNSDNTLFLEMNNLRFEDTAVYYCAKEGYGVDFQHWGQGTLVTVSS
VL: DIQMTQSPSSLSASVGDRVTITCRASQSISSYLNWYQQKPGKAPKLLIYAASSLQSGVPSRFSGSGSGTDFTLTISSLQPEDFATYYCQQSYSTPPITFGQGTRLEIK
notes: hIgG4 isotype control used

Luminex MFI signal [1]: 15200 MFI
Luminex MFI signal [2]: 12000 MFI
Luminex MFI signal [3]: 20900 MFI
Max Blocking of Antibody at 200 nM (%) [4]: -22.8%
B2: MAb16683 (antibody, V domains shown)
VH: QVQLVESGGGLVKPGGSLRLSCAASGFTFSDYYMTWIRQTPGKGLDWVSYISSSGTNKYNADSVKGRFTISRDNAKNSLYLQMNSLRAEDTAVYYCVRDPPWGMDVWGQGTTVTVSS
VL: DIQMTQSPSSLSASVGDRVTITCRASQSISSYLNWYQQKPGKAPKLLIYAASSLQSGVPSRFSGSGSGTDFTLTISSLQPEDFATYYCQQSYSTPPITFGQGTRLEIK
notes: hIgG4 isotype control used
